The experiment addresses Protease Mixtures. Description: cell-based or functional assay.

B1: Variant A2M, bait region SEQ ID NO 128, P01023 24-1474 (protein)
chain: SVSGKPQYMVLVPSLLHTETTEKGCVLLSYLNETVTVSASLESVRGNRSLFTDLEAENDVLHCVAFAVPKSSSNEEVMFLTVQVKGPTQEFKKRTTVMVKNEDSLVFVQTDKSIYKPGQTVKFRVVSMDENFHPLNELIPLVYIQDPKGNRIAQWQSFQLEGGLKQFSFPLSSEPFQGSYKVVVQKKSGGRTEHPFTVEEFVLPKFEVQVTVPKIITILEEEMNVSVCGLYTYGKPVPGHVTVSICRKYSDASDCHGEDSQAFCEKFSGQLNSHGCFYQQVKTKVFQLKRKEYEMKLHTEAQIQEEGTVVELTGRQSSEITRTITKLSFVKVDSHFRQGIPFFGQVRLVDGKGVPIPNKVIFIRGNEANYYSNATTDEHGLVQFSINTTNVMGTSLTVRVNYKDRSPCYGYQWVSEEHEEAHHTAYLVFSPSKSFVHLEPMSHELPCGHTQTVQAHYILNGGTLLGLKKLSFYYLIMAKGGIVRTGTHGLLVKQEDMKGHFSISIPVKSDIAPVARLLIYAVLPTGDVIGDSAKYDVENCLANKVDLSFSPSQSLPASHAHLRVTAAPQSVCALRAVDQSVLLMKPDAELSASSVYNLLPEKDLTGFPGPLNDQDDEDCINRHNVYINGITYTPVSSTNEKDMYSFLEDMGLKAFTNSKIRKPKMCPQLEQYEMHGPSELEGRGSEAIPMSIPTKEEEGLGSIPENFFGVVEEPHTKLRKYFPETWIWDLVVVNSAGVAEVGVTVPDTITEWKAGAFCLSEDAGLGISSTASLRAFQPFFVELTMPYSVIRGEAFTLKATVLNYLPKCIRVSVQLEASPAFLAVPVEKEQAPHCICANGRQTVSWAVTPKSLGNVNFTVSAEALESQELCGTEVPSVPEHGRKDTVIKPLLVEPEGLEKETTFNSLLCPSGGEVSEELSLKLPPNVVEESARASVSVLGDILGSAMQNTQNLLQMPYGCGEQNMVLFAPNIYVLDYLNETQQLTPEIKSKAIGYLNTGYQRQLNYKHYDGSYSTFGERYGRNQGNTWLTAFVLKTFAQARAYIFIDEAHITQALIWLSQRQKDNGCFRSSGSLLNNAIKGGVEDEVTLSAYITIALLEIPLTVTHPVVRNALFCLESAWKTAQEGDHGSHVYTKALLAYAFALAGNQDKRKEVLKSLNEEAVKKDNSVHWERPQKPKAPVGHFYEPQAPSAEVEMTSYVLLAYLTAQPAPTSEDLTSATNIVKWITKQQNAQGGFSSTQDTVVALHALSKYGAATFTRTGKAAQVTIQSSGTFSSKFQVDNNNRLLLQQVSLPELPGEYSMKVTGEGCVYLQTSLKYNILPEKEEFPFALGVQTLPQTCDEPKAHTSFQISLSVSYTGSRSASNMAIVDVKMVSGFIPLKPTVKMLERSNHVSRTEVSSNHVLIYLDKVSNQTLSLFFTVLQDVPVRDLKPAIVKVYDYYETDEFAIAEYNAPCSKDLGNADYKDDDDKGASHHHHHH
Regarding B1, the Protease Inhibition (% of WT); Protease Mixtures, IGD Substrate is 125 % of WT.

B2: Variant A2M, bait region SEQ ID NO 131, P01023 24-1474 (protein)
chain: SVSGKPQYMVLVPSLLHTETTEKGCVLLSYLNETVTVSASLESVRGNRSLFTDLEAENDVLHCVAFAVPKSSSNEEVMFLTVQVKGPTQEFKKRTTVMVKNEDSLVFVQTDKSIYKPGQTVKFRVVSMDENFHPLNELIPLVYIQDPKGNRIAQWQSFQLEGGLKQFSFPLSSEPFQGSYKVVVQKKSGGRTEHPFTVEEFVLPKFEVQVTVPKIITILEEEMNVSVCGLYTYGKPVPGHVTVSICRKYSDASDCHGEDSQAFCEKFSGQLNSHGCFYQQVKTKVFQLKRKEYEMKLHTEAQIQEEGTVVELTGRQSSEITRTITKLSFVKVDSHFRQGIPFFGQVRLVDGKGVPIPNKVIFIRGNEANYYSNATTDEHGLVQFSINTTNVMGTSLTVRVNYKDRSPCYGYQWVSEEHEEAHHTAYLVFSPSKSFVHLEPMSHELPCGHTQTVQAHYILNGGTLLGLKKLSFYYLIMAKGGIVRTGTHGLLVKQEDMKGHFSISIPVKSDIAPVARLLIYAVLPTGDVIGDSAKYDVENCLANKVDLSFSPSQSLPASHAHLRVTAAPQSVCALRAVDQSVLLMKPDAELSASSVYNLLPEKDLTGFPGPLNDQDDEDCINRHNVYINGITYTPVSSTNEKDMYSFLEDMGLKAFTNSKIRKPKMCPQLEQYEMHGPEGEGEGEGISEDLVVQIPENFFGVKEEEGLGSVEEPHTKLRKYFPETWIWDLVVVNSAGVAEVGVTVPDTITEWKAGAFCLSEDAGLGISSTASLRAFQPFFVELTMPYSVIRGEAFTLKATVLNYLPKCIRVSVQLEASPAFLAVPVEKEQAPHCICANGRQTVSWAVTPKSLGNVNFTVSAEALESQELCGTEVPSVPEHGRKDTVIKPLLVEPEGLEKETTFNSLLCPSGGEVSEELSLKLPPNVVEESARASVSVLGDILGSAMQNTQNLLQMPYGCGEQNMVLFAPNIYVLDYLNETQQLTPEIKSKAIGYLNTGYQRQLNYKHYDGSYSTFGERYGRNQGNTWLTAFVLKTFAQARAYIFIDEAHITQALIWLSQRQKDNGCFRSSGSLLNNAIKGGVEDEVTLSAYITIALLEIPLTVTHPVVRNALFCLESAWKTAQEGDHGSHVYTKALLAYAFALAGNQDKRKEVLKSLNEEAVKKDNSVHWERPQKPKAPVGHFYEPQAPSAEVEMTSYVLLAYLTAQPAPTSEDLTSATNIVKWITKQQNAQGGFSSTQDTVVALHALSKYGAATFTRTGKAAQVTIQSSGTFSSKFQVDNNNRLLLQQVSLPELPGEYSMKVTGEGCVYLQTSLKYNILPEKEEFPFALGVQTLPQTCDEPKAHTSFQISLSVSYTGSRSASNMAIVDVKMVSGFIPLKPTVKMLERSNHVSRTEVSSNHVLIYLDKVSNQTLSLFFTVLQDVPVRDLKPAIVKVYDYYETDEFAIAEYNAPCSKDLGNADYKDDDDKGASHHHHHH
As to B2, the Protease Inhibition (% of WT); Protease Mixtures, IGD Substrate was 150 % of WT.

B3: Variant A2M, bait region SEQ ID NO 129, P01023 24-1474 (protein)
chain: SVSGKPQYMVLVPSLLHTETTEKGCVLLSYLNETVTVSASLESVRGNRSLFTDLEAENDVLHCVAFAVPKSSSNEEVMFLTVQVKGPTQEFKKRTTVMVKNEDSLVFVQTDKSIYKPGQTVKFRVVSMDENFHPLNELIPLVYIQDPKGNRIAQWQSFQLEGGLKQFSFPLSSEPFQGSYKVVVQKKSGGRTEHPFTVEEFVLPKFEVQVTVPKIITILEEEMNVSVCGLYTYGKPVPGHVTVSICRKYSDASDCHGEDSQAFCEKFSGQLNSHGCFYQQVKTKVFQLKRKEYEMKLHTEAQIQEEGTVVELTGRQSSEITRTITKLSFVKVDSHFRQGIPFFGQVRLVDGKGVPIPNKVIFIRGNEANYYSNATTDEHGLVQFSINTTNVMGTSLTVRVNYKDRSPCYGYQWVSEEHEEAHHTAYLVFSPSKSFVHLEPMSHELPCGHTQTVQAHYILNGGTLLGLKKLSFYYLIMAKGGIVRTGTHGLLVKQEDMKGHFSISIPVKSDIAPVARLLIYAVLPTGDVIGDSAKYDVENCLANKVDLSFSPSQSLPASHAHLRVTAAPQSVCALRAVDQSVLLMKPDAELSASSVYNLLPEKDLTGFPGPLNDQDDEDCINRHNVYINGITYTPVSSTNEKDMYSFLEDMGLKAFTNSKIRKPKMCPQLEQYEMHGPEAIPMSIPTEGEGEGEGIPENFFGVSEDLVVQIVEEPHTKLRKYFPETWIWDLVVVNSAGVAEVGVTVPDTITEWKAGAFCLSEDAGLGISSTASLRAFQPFFVELTMPYSVIRGEAFTLKATVLNYLPKCIRVSVQLEASPAFLAVPVEKEQAPHCICANGRQTVSWAVTPKSLGNVNFTVSAEALESQELCGTEVPSVPEHGRKDTVIKPLLVEPEGLEKETTFNSLLCPSGGEVSEELSLKLPPNVVEESARASVSVLGDILGSAMQNTQNLLQMPYGCGEQNMVLFAPNIYVLDYLNETQQLTPEIKSKAIGYLNTGYQRQLNYKHYDGSYSTFGERYGRNQGNTWLTAFVLKTFAQARAYIFIDEAHITQALIWLSQRQKDNGCFRSSGSLLNNAIKGGVEDEVTLSAYITIALLEIPLTVTHPVVRNALFCLESAWKTAQEGDHGSHVYTKALLAYAFALAGNQDKRKEVLKSLNEEAVKKDNSVHWERPQKPKAPVGHFYEPQAPSAEVEMTSYVLLAYLTAQPAPTSEDLTSATNIVKWITKQQNAQGGFSSTQDTVVALHALSKYGAATFTRTGKAAQVTIQSSGTFSSKFQVDNNNRLLLQQVSLPELPGEYSMKVTGEGCVYLQTSLKYNILPEKEEFPFALGVQTLPQTCDEPKAHTSFQISLSVSYTGSRSASNMAIVDVKMVSGFIPLKPTVKMLERSNHVSRTEVSSNHVLIYLDKVSNQTLSLFFTVLQDVPVRDLKPAIVKVYDYYETDEFAIAEYNAPCSKDLGNADYKDDDDKGASHHHHHH
For B3, the Protease Inhibition (% of WT); Protease Mixtures, IGD Substrate was 160 % of WT.

B4: Variant A2M, bait region SEQ ID NO 132, P01023 24-1474 (protein)
chain: SVSGKPQYMVLVPSLLHTETTEKGCVLLSYLNETVTVSASLESVRGNRSLFTDLEAENDVLHCVAFAVPKSSSNEEVMFLTVQVKGPTQEFKKRTTVMVKNEDSLVFVQTDKSIYKPGQTVKFRVVSMDENFHPLNELIPLVYIQDPKGNRIAQWQSFQLEGGLKQFSFPLSSEPFQGSYKVVVQKKSGGRTEHPFTVEEFVLPKFEVQVTVPKIITILEEEMNVSVCGLYTYGKPVPGHVTVSICRKYSDASDCHGEDSQAFCEKFSGQLNSHGCFYQQVKTKVFQLKRKEYEMKLHTEAQIQEEGTVVELTGRQSSEITRTITKLSFVKVDSHFRQGIPFFGQVRLVDGKGVPIPNKVIFIRGNEANYYSNATTDEHGLVQFSINTTNVMGTSLTVRVNYKDRSPCYGYQWVSEEHEEAHHTAYLVFSPSKSFVHLEPMSHELPCGHTQTVQAHYILNGGTLLGLKKLSFYYLIMAKGGIVRTGTHGLLVKQEDMKGHFSISIPVKSDIAPVARLLIYAVLPTGDVIGDSAKYDVENCLANKVDLSFSPSQSLPASHAHLRVTAAPQSVCALRAVDQSVLLMKPDAELSASSVYNLLPEKDLTGFPGPLNDQDDEDCINRHNVYINGITYTPVSSTNEKDMYSFLEDMGLKAFTNSKIRKPKMCPQLEQYEMHGPEGEGEGEGIPENFFGVSELEGRGSSEDLVVQIVEEPHTKLRKYFPETWIWDLVVVNSAGVAEVGVTVPDTITEWKAGAFCLSEDAGLGISSTASLRAFQPFFVELTMPYSVIRGEAFTLKATVLNYLPKCIRVSVQLEASPAFLAVPVEKEQAPHCICANGRQTVSWAVTPKSLGNVNFTVSAEALESQELCGTEVPSVPEHGRKDTVIKPLLVEPEGLEKETTFNSLLCPSGGEVSEELSLKLPPNVVEESARASVSVLGDILGSAMQNTQNLLQMPYGCGEQNMVLFAPNIYVLDYLNETQQLTPEIKSKAIGYLNTGYQRQLNYKHYDGSYSTFGERYGRNQGNTWLTAFVLKTFAQARAYIFIDEAHITQALIWLSQRQKDNGCFRSSGSLLNNAIKGGVEDEVTLSAYITIALLEIPLTVTHPVVRNALFCLESAWKTAQEGDHGSHVYTKALLAYAFALAGNQDKRKEVLKSLNEEAVKKDNSVHWERPQKPKAPVGHFYEPQAPSAEVEMTSYVLLAYLTAQPAPTSEDLTSATNIVKWITKQQNAQGGFSSTQDTVVALHALSKYGAATFTRTGKAAQVTIQSSGTFSSKFQVDNNNRLLLQQVSLPELPGEYSMKVTGEGCVYLQTSLKYNILPEKEEFPFALGVQTLPQTCDEPKAHTSFQISLSVSYTGSRSASNMAIVDVKMVSGFIPLKPTVKMLERSNHVSRTEVSSNHVLIYLDKVSNQTLSLFFTVLQDVPVRDLKPAIVKVYDYYETDEFAIAEYNAPCSKDLGNADYKDDDDKGASHHHHHH
Turning to B4, the Protease Inhibition (% of WT); Protease Mixtures, Collagen Substrate is 120 % of WT and the Protease Inhibition (% of WT); Protease Mixtures, IGD Substrate is 243 % of WT.

The record behind these values is patent publication US20230250154A1.
